Laboratory results published in patent US5912224.

Molecular target: TGF-β type I receptor of Mv1Lu cells (mink)

TGFβ induced 3TP-Luc luciferase activity in Mv1Lu cells: 25 fold
Substance: myristylated FKBP12
